Target: prefusion-stabilized SARS-CoV-2 S-trimer protein (wild type, Wuhan-Hu-1) (SARS-CoV-2, UniProt P0DTC2)
Experiment: cell-based or functional assay

B1: MAb S3H3 (antibody, V domains shown)
VH: QVQLQQPGAELVRPGASVKLSCKASGYSFTRFWMNWVKQRPGQGLEWIGMIHPSDSETRLNQKFKDKATLTVDKSSTTAYMQLSSPTSEDSAVYYCARKDYDYDAWFAYWGQGTLVTVSA
VL: DIVLTQSPASLAVSLGQRATISCRASKSVSASVYSYMHWYQQKPGQPPKLLIYLASSLESGVPARFSGSGSGTDFTLNIHPVEEEDAATYYCHHSRELPPAFGGGTKLEIK
- IC50 of neutralisation of WT S pseudovirus: 0.083 µg/mL

Reference: paper PMC8794075 (Emerging Microbes & Infections, 2022)
